{"source": "patent US20190248900A1", "about": "(Y BIOLOGICS, published 2019)", "binders": {"B1": {"name": "PD1-45D6 (antibody, V domains shown)", "VH": "QVQLVESGGGVVQPGRSLRLSCAASGFTFSSYAMHWVRQVPGKGLEWVAVISYDGNDKYYADSVKGRFTISRDNSKNTLYLQMNSLRAEDTAVYYCVPTTFEYWGQGSQVTVSS", "VL": "DIVMTQTPLSLPVTPGEAASISCRSSQSLLDSDDGKTYLDWYLQKPGQSPQLLIYTLSYRASGVPDRFSGSGSGTEFNLRISRVEAEDVGIYYCMQRVEFPFTFGQGTKLDIK", "notes": "scFv-phage in the screening ELISA; whole IgG in the other assays"}, "B2": {"name": "PD1-52E8 (antibody, V domains shown)", "VH": "QVQLVQSGGNLVQPGRSLRLSCAASGFTFDDYAMHWVRQAPGKGLEWVSGISWNSGTPGYADSVQGRFTISRDNAKNSLYLQMNSLRAEDTAVYYCARGHNYLDSSYYDYWGQGTLVTVSS", "VL": "SYELTQPLSLSVAPGQTARITCSGDALSKEYSYWYQQKPGQAPVLVMYKDSERPSGIPERFSGSSSGTTVTLTISGVQAEDEADYYCQSVDSSDTSVVFGGGTKLTVL", "notes": "as for B1"}, "B3": {"name": "PD1-41C9 (antibody, V domains shown)", "VH": "QMQLVESGGGVVQPGRSLRLSCAASGFTFSSYAMHWVRQAPGKGLEWVAVISYDGSNKYYADSVKGRFTISRDNSKNTLYLQMNRLRSEDTAVYYCTTTTFDSWGQGTLITVSS", "VL": "DIVMTQTPLSLPVTPGEAASISCRSSQSLLDSEDGNTYLDWYLQKPGQSPQLLIYTLSHRASGVPDRFSGSGSGTDFTLKISRVAAEDVGLYYCLQRMGFPYTFGQGTKLDIK", "notes": "as for B1"}, "B4": {"name": "PD1-49A2 (antibody, V domains shown)", "VH": "B3 VH with M2V, S75P, R85S, S88A, Q106R, I110V", "VL": "B3 VL with T7S, A18P, L30F, E33D, A85E, L91I, L110V, D111E", "notes": "scFv-phage in the screening ELISA; whole IgG in the other assays; also called Parent 49A2"}}, "note": "Where a chain is given by its changes, count along the chain named.", "data": [{"target": "T1, human PD-1 (NM_005018.2) over-expressed on cells (human, UniProt Q15116 25-288)", "T1 sequence (Q15116 25-288)": "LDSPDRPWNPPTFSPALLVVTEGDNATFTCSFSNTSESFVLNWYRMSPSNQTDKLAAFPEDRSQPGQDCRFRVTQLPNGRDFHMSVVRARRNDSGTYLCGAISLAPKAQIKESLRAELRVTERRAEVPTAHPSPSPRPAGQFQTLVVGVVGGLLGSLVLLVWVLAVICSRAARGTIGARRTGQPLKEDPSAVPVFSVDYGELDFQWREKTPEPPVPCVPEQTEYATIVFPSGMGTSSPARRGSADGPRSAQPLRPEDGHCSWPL", "experiment": "cell-based or functional assay", "units": {"EC50 [nM], PD1/PD-L1 blockade bioassay": "nM"}, "values": [{"binder": "B1", "EC50 [nM], PD1/PD-L1 blockade bioassay": 2}, {"binder": "B2", "EC50 [nM], PD1/PD-L1 blockade bioassay": 8.43}, {"binder": "B3", "EC50 [nM], PD1/PD-L1 blockade bioassay": 3.91}, {"binder": "B4", "EC50 [nM], PD1/PD-L1 blockade bioassay": 3.78}]}, {"target": "T2, M2-1", "T2 construct": "also called PD1 mutant M2-1", "experiment": "ELISA, 1 ug/ml", "values": [{"binder": "B1", "OD490": 3.9}, {"binder": "B2", "OD490": 2.9}, {"binder": "B3", "OD490": 3.4}, {"binder": "B4", "OD490": 3.7}]}, {"target": "T3, M2-2", "T3 construct": "also called PD1 mutant M2-2", "experiment": "ELISA, 1 ug/ml", "values": [{"binder": "B1", "OD490": 3.8}, {"binder": "B2", "OD490": 3.4}, {"binder": "B3", "OD490": 3.2}, {"binder": "B4", "OD490": 3.8}]}, {"target": "T4, M3", "T4 construct": "also called PD1 mutant M3", "experiment": "ELISA, 1 ug/ml", "values": [{"binder": "B1", "OD490": 3.8}, {"binder": "B2", "OD490": 1.5}, {"binder": "B3", "OD490": 2.3}, {"binder": "B4", "OD490": 3.4}]}, {"target": "T5, M4", "T5 construct": "also called PD1 mutant M4", "experiment": "ELISA, 1 ug/ml", "values": [{"binder": "B1", "OD490": 3.9}, {"binder": "B2", "OD490": 3.7}, {"binder": "B3", "OD490": 3.2}, {"binder": "B4", "OD490": 3.9}]}, {"target": "T6, M11", "T6 construct": "also called PD1 mutant M11", "experiment": "ELISA, 1 ug/ml", "values": [{"binder": "B1", "OD490": 0.7}, {"binder": "B2", "OD490": 0.2}, {"binder": "B3", "OD490": 0.9}, {"binder": "B4", "OD490": 0.4}]}, {"target": "T7, M5", "T7 construct": "also called PD1 mutant M5", "experiment": "ELISA, 1 ug/ml", "values": [{"binder": "B1", "OD490": 3.6}, {"binder": "B2", "OD490": 0.5}, {"binder": "B3", "OD490": 2.3}, {"binder": "B4", "OD490": 1.2}]}, {"target": "T8, M5-1", "T8 construct": "also called PD1 mutant M5-1", "experiment": "ELISA, 1 ug/ml", "values": [{"binder": "B1", "OD490": 3.8}, {"binder": "B2", "OD490": 0.3}, {"binder": "B3", "OD490": 2.8}, {"binder": "B4", "OD490": 0.7}]}, {"target": "T9, M5-2", "T9 construct": "also called PD1 mutant M5-2", "experiment": "ELISA, 1 ug/ml", "values": [{"binder": "B1", "OD490": 3.9}, {"binder": "B2", "OD490": 3.5}, {"binder": "B3", "OD490": 3.6}, {"binder": "B4", "OD490": 3.8}]}, {"target": "T10, M6", "T10 construct": "also called PD1 mutant M6", "experiment": "ELISA, 1 ug/ml", "values": [{"binder": "B1", "OD490": 3.9}, {"binder": "B2", "OD490": 3.4}, {"binder": "B3", "OD490": 3.6}, {"binder": "B4", "OD490": 3.9}]}, {"target": "T11, M12", "T11 construct": "also called PD1 mutant M12", "experiment": "ELISA, 1 ug/ml", "values": [{"binder": "B1", "OD490": 3.9}, {"binder": "B2", "OD490": 3.2}, {"binder": "B3", "OD490": 3.1}, {"binder": "B4", "OD490": 3.9}]}, {"target": "T12, M13", "T12 construct": "also called PD1 mutant M13", "experiment": "ELISA, 1 ug/ml", "values": [{"binder": "B1", "OD490": 4}, {"binder": "B2", "OD490": 3.9}, {"binder": "B3", "OD490": 3.6}, {"binder": "B4", "OD490": 3.9}]}, {"target": "T13, M14", "T13 construct": "also called PD1 mutant M14", "experiment": "ELISA, 1 ug/ml", "values": [{"binder": "B1", "OD490": 3.9}, {"binder": "B2", "OD490": 2.6}, {"binder": "B3", "OD490": 3.5}, {"binder": "B4", "OD490": 3.9}]}, {"target": "T14, M7", "T14 construct": "also called PD1 mutant M7", "experiment": "ELISA, 1 ug/ml", "values": [{"binder": "B1", "OD490": 0.5}, {"binder": "B2", "OD490": 1}, {"binder": "B3", "OD490": 0.8}, {"binder": "B4", "OD490": 0.4}]}, {"target": "T15, M7-1", "T15 construct": "also called PD1 mutant M7-1", "experiment": "ELISA, 1 ug/ml", "values": [{"binder": "B1", "OD490": 1.3}, {"binder": "B2", "OD490": 1.1}, {"binder": "B3", "OD490": 1.2}, {"binder": "B4", "OD490": 0.5}]}, {"target": "T16, M7-2", "T16 construct": "also called PD1 mutant M7-2", "experiment": "ELISA, 1 ug/ml", "values": [{"binder": "B1", "OD490": 4}, {"binder": "B2", "OD490": 3.9}, {"binder": "B3", "OD490": 3}, {"binder": "B4", "OD490": 2.2}]}, {"target": "T17, M8", "T17 construct": "also called PD1 mutant M8", "experiment": "ELISA, 1 ug/ml", "values": [{"binder": "B1", "OD490": 3.8}, {"binder": "B2", "OD490": 0.6}, {"binder": "B3", "OD490": 2.5}, {"binder": "B4", "OD490": 3}]}, {"target": "T18, M9", "T18 construct": "also called PD1 mutant M9", "experiment": "ELISA, 1 ug/ml", "values": [{"binder": "B1", "OD490": 3.8}, {"binder": "B2", "OD490": 2.4}, {"binder": "B3", "OD490": 3.3}, {"binder": "B4", "OD490": 3.7}]}, {"target": "T19, M10", "T19 construct": "also called PD1 mutant M10", "experiment": "ELISA, 1 ug/ml", "values": [{"binder": "B1", "OD490": 3.9}, {"binder": "B2", "OD490": 1}, {"binder": "B3", "OD490": 3.4}, {"binder": "B4", "OD490": 2.6}]}, {"target": "T20, ITGA6-Fc", "T20 construct": "Fc fusion", "T20 sequence (P23229 whole entry, species assumed, looked up)": "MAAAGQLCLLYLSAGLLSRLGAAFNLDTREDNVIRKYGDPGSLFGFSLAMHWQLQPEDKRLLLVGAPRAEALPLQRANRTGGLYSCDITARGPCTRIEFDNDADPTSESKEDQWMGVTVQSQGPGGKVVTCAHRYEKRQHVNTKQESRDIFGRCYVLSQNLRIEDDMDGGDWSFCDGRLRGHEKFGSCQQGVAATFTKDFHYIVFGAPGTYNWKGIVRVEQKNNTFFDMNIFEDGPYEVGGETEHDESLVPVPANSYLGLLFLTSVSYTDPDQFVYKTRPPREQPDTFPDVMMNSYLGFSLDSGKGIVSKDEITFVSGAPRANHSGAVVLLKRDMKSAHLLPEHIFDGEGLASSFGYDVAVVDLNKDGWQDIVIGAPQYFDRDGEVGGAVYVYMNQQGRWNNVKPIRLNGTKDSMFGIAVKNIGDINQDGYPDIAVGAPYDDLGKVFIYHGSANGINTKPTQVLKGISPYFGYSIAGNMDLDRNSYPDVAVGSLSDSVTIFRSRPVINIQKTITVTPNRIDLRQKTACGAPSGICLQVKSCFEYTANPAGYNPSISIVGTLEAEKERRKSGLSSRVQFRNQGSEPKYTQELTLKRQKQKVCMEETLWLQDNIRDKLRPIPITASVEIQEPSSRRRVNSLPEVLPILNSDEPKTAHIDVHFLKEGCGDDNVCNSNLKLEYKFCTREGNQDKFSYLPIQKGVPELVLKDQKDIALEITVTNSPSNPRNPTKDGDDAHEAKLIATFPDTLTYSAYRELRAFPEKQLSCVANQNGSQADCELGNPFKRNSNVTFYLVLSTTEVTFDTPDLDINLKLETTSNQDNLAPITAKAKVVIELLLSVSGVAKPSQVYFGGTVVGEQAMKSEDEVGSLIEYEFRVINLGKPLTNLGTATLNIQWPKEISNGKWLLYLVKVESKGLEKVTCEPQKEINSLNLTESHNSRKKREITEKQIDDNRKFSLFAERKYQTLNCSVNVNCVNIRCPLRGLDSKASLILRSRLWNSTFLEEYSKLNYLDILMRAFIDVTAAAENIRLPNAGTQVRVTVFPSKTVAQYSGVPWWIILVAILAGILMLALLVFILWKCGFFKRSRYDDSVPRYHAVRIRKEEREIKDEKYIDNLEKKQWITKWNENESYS", "experiment": "ELISA, 1 ug/ml", "values": [{"binder": "B1", "OD490": 0.5}, {"binder": "B2", "OD490": 0.1}, {"binder": "B3", "OD490": 0.5}, {"binder": "B4", "OD490": 0.2}]}, {"target": "T21, M1", "T21 construct": "also called PD1 mutant M1", "experiment": "ELISA, 1 ug/ml", "values": [{"binder": "B1", "OD490": 4}, {"binder": "B2", "OD490": 1.4}, {"binder": "B3", "OD490": 3.2}, {"binder": "B4", "OD490": 3}]}, {"target": "T22, M1-2", "T22 construct": "also called PD1 mutant M1-2", "experiment": "ELISA, 1 ug/ml", "values": [{"binder": "B1", "OD490": 3.9}, {"binder": "B2", "OD490": 3.6}, {"binder": "B3", "OD490": 3.2}, {"binder": "B4", "OD490": 3.8}]}, {"target": "T23, PD1-his (Catalog Number 10377-H08H, Sino Biological Inc.) (UniProt Q15116 25-167)", "T23 construct": "bought protein; not shown: His tag", "T23 sequence (Q15116 25-167 limits assumed)": "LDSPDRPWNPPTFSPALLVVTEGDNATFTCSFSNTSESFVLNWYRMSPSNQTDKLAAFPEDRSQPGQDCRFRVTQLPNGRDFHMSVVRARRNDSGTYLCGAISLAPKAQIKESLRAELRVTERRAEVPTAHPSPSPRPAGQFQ", "experiment": "ELISA, 1 ug/ml", "values": [{"binder": "B1", "OD490": 3.8}, {"binder": "B2", "OD490": 0.4}, {"binder": "B3", "OD490": 3.2}, {"binder": "B4", "OD490": 3.6}]}, {"target": "T1, human PD-1 (NM_005018.2) over-expressed …", "experiment": "flow cytometry on cells over-expressing human PD-1, Geometric Mean", "experimental": "0.5 to 1×10⁶ cells per sample were each prepared from the transformation cell pools highly expressing human PD-1, and antibodies were serially diluted at a constant dilution rate and reacted with the prepared cells at 4° C. for 20 minutes. Then, the cells were washed three times with PBS (#LB001-02, Welgene) containing 2% fetal bovine serum and reacted at 4° C. for 20 minutes with an anti-human IgG antibody (#FI-3000, Vectorlabs) conjugated with a FITC (fluorescein isothiocyanate) fluorescent substance. Then, the cells were subjected to the same washing process as above and then suspended in 0.5 ml of PBS containing 2% FBS (#26140-079, Thermo Fisher) with an FACSCanto II flow cytometer (BD Biosciences, USA) as a flow cytometer.", "units": {"EC50": "nM"}, "values": [{"binder": "B1", "EC50": 4.84}, {"binder": "B3", "EC50": 5.89}, {"binder": "B4", "EC50": 5.07}]}]}
